# Laboratory results taken from IntAct's records for PubMed 24417819.
# B1: Tetratricopeptide repeat protein 7A (Homo sapiens), Q9ULT0 (parent)
# chain: MAAKGAHGSYLKVESELERCRAEGHWDRMPELVRQLQTLSMPGGGGNRRGSPSAAFTFPDTDDFGKLLLAEALLEQCLKENHAKIKDSMPLLEKNEPKMSEAKNYLSSILNHGRLSPQYMCEAMLILGKLHYVEGSYRDAISMYARAGIDDMSMENKPLYQMRLLSEAFVIKGLSLERLPNSIASRFRLTEREEEVITCFERASWIAQVFLQELEKTTNNSTSRHLKGCHPLDYELTYFLEAALQSAYVKNLKKGNIVKGMRELREVLRTVETKATQNFKVMAAKHLAGVLLHSLSEECYWSPLSHPLPEFMGKEESSFATQALRKPHLYEGDNLYCPKDNIEEALLLLLISESMATRDVVLSRVPEQEEDRTVSLQNAAAIYDLLSITLGRRGQYVMLSECLERAMKFAFGEFHLWYQVALSMVACGKSAYAVSLLRECVKLRPSDPTVPLMAAKVCIGSLRWLEEAEHFAMMVISLGEEAGEFLPKGYLALGLTYSLQATDATLKSKQDELHRKALQTLERAQQLAPSDPQVILYVSLQLALVRQISSAMEQLQEALKVRKDDAHALHLLALLFSAQKHHQHALDVVNMAITEHPENFNLMFTKVKLEQVLKGPEEALVTCRQVLRLWQTLYSFSQLGGLEKDGSFGEGLTMKKQSGMHLTLPDAHDADSGSRRASSIAASRLEEAMSELTMPSSVLKQGPMQLWTTLEQIWLQAAELFMEQQHLKEAGFCIQEAAGLFPTSHSVLYMRGRLAEVKGNLEEAKQLYKEALTVNPDGVRIMHSLGLMLSRLGHKSLAQKVLRDAVERQSTCHEAWQGLGEVLQAQGQNEAAVDCFLTALELEASSPVLPFSIIPREL
# Variants of: B1
# Conditions: with PI4K2A
row,Variant,effect of a mutation on the interaction
1,E71K,decreasing interaction
2,A832T,decreasing interaction
